Laboratory results: IntAct's records for PubMed 25910212

B1: Acetylcholine receptor subunit gamma (Homo sapiens), P07510-2 (parent)
chain: MHGGQGPLLLLLLLAVCLGAQGRNQEERLLADLMQNYDPNLRPAERDSDVVNVSLKLTLTNLISLNEREEALTTNVWIEMQWCDYRLRWDPRDYEGLWVLRVPSTMVWRPDIVLENKSQTYSTNEIDLQLSQEDGQTIEWIFIDPEAFTENGEWAIQHRPAKMLLDPAAPAQEAGHQKVVFYLLIQRKPLFYVINIIAPCVLISSVAILIHFLPAKAGGQKCTVAINVLLAQTVFLFLVAKKVPETSQAVPLISKYLTFLLVVTILIVVNAVVVLNVSLRSPHTHSMARGVRKVFLRLLPQLLRMHVRPLAPAAVQDTQSRLQNGSSGWSITTGEEVALCLPRSELLFQQWQRQGLVAAALEKLEKGPELGLSQFCGSLKQAAPAIQACVEACNLIACARHQQSHFDNGNEEWFLVGRVLDRVCFLAMLSLFICGTAGIFLMAHYNRVPALPFPGDPRPYLPSPD
partner: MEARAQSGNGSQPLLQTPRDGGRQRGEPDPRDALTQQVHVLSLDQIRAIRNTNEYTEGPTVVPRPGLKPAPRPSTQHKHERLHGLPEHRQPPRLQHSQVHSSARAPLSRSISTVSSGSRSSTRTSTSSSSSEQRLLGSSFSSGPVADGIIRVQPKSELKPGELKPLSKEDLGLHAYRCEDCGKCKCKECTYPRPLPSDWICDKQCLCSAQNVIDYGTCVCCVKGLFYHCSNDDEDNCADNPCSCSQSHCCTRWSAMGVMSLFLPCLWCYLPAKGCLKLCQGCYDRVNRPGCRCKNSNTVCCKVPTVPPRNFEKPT
B2: PiggyBac transposable element-derived protein 1 (Homo sapiens), Q96JS3 (parent)
chain: MYEALPGPAPENEDGLVKVKEEDPTWEQVCNSQEGSSHTQEICRLRFRHFCYQEAHGPQEALAQLRELCHQWLRPEMHTKEQIMELLVLEQFLTILPKELQPCVKTYPLESGEEAVTVLENLETGSGDTGQQASVYIQGQDMHPMVAEYQGVSLECQSLQLLPGITTLKCEPPQRPQGNPQEVSGPVPHGSAHLQEKNPRDKAVVPVFNPVRSQTLVKTEEETAQAVAAEKWSHLSLTRRNLCGNSAQETVMSLSPMTEEIVTKDRLFKAKQETSEEMEQSGEASGKPNRECAPQIPCSTPIATERTVAHLNTLKDRHPGDLWARMHISSLEYAAGDITRKGRKKDKARVSELLQGLSFSGDSDVEKDNEPEIQPAQKKLKVSCFPEKSWTKRDIKPNFPSWSALDSGLLNLKSEKLNPVELFELFFDDETFNLIVNETNNYASQKNVSLEVTVQEMRCVFGVLLLSGFMRHPRREMYWEVSDTDQNLVRDAIRRDRFELIFSNLHFADNGHLDQKDKFTKLRPLIKQMNKNFLLYAPLEEYYCFDKSMCECFDSDQFLNGKPIRIGYKIWCGTTTQGYLVWFEPYQEESTMKVDEDPDLGLGGNLVMNFADVLLERGQYPYHLCFDSFFTSVKLLSALKKKGVRATGTIRENRTEKCPLMNVEHMKKMKRGYFDFRIEENNEIILCRWYGDGIISLCSNAVGIEPVNEVSCCDADNEEIPQISQPSIVKVYDECKEGVAKMDQIISKYRVRIRSKKWYSILVSYMIDVAMNNAWQLHRACNPGASLDPLDFRRFVAHFYLEHNAHLSD
partner: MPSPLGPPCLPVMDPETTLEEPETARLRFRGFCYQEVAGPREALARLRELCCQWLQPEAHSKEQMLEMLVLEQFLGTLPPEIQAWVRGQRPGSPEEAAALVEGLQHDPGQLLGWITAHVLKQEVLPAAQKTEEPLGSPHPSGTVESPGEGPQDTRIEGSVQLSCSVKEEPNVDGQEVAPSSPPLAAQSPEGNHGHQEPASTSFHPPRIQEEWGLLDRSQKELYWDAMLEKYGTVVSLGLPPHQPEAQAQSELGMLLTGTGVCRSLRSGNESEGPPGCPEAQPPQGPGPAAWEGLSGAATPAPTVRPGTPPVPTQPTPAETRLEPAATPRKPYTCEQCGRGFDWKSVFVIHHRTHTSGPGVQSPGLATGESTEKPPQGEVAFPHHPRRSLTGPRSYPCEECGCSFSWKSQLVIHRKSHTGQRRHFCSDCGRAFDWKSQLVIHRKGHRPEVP
B3: Emerin (Homo sapiens), P50402 (parent)
chain: MDNYADLSDTELTTLLRRYNIPHGPVVGSTRRLYEKKIFEYETQRRRLSPPSSSAASSYSFSDLNSTRGDADMYDLPKKEDALLYQSKGYNDDYYEESYFTTRTYGEPESAGPSRAVRQSVTSFPDADAFHHQVHDDDLLSSSEEECKDRERPMYGRDSAYQSITHYRPVSASRSSLDLSYYPTSSSTSFMSSSSSSSSWLTRRAIRPENRAPGAGLGQDRQVPLWGQLLLFLVFVIVLFFIYHFMQAEEGNPF
partner: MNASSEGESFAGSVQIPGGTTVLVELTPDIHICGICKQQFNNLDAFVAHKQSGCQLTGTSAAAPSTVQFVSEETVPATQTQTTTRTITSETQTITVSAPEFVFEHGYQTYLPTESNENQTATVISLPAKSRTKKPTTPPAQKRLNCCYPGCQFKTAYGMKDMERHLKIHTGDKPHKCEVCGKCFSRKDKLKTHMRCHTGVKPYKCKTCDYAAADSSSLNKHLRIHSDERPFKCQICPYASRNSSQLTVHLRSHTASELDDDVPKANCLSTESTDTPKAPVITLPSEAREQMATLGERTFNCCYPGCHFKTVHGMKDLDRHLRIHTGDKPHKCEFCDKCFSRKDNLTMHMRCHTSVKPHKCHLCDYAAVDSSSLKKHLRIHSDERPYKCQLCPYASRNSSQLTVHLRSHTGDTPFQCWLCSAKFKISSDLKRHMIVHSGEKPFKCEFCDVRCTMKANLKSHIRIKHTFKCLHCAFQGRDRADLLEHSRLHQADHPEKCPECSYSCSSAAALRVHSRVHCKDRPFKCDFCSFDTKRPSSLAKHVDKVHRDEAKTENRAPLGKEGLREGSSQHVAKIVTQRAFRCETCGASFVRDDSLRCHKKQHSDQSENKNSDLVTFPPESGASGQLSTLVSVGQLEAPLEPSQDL

Variants of: B1
Settings: with spy2_human SPRY2, O43597

| effect of a mutation on the interaction | Variant |
| --- | --- |
| disrupting interaction strength | V107G |
| disrupting interaction strength | R86C |

Variants of: B2
Settings: with zn446_human ZNF446, Q9NWS9

| Variant | effect of a mutation on the interaction |
| --- | --- |
| Q248E | with no effect |
| I678V | with no effect |
| H806D | with no effect |

Results, then the variant that gave them:

| effect of a mutation on the interaction | Variant |
| --- | --- |
| with no effect | G244E |
| with no effect | P256L |

Variants of: B3
Settings: with zf64b_human ZFP64, Q9NTW7

| Variant | effect of a mutation on the interaction |
| --- | --- |
| S54F | with no effect |
| D72V | with no effect |

Now from value to variant:

| effect of a mutation on the interaction | Variant |
| --- | --- |
| with no effect | P183H |
| with no effect | P183T |
